Results: patent publication US10517925B2, “Composition comprising KA11 polypeptide or gene encoding the same for inhibiting angiogenesis, and use thereof” (SEOUL NATIONAL UNIVERSITY R & DB FOUNDATION, priority 2015, dated 2019)
Entries after “also recorded” stand apart in the source; their conditions may differ.

Experiments:
[1] = test system: KAI1 expression in 10T1/2; experiment: blocking of the cytokine-induced decrease in KAI1 expression of 10T1/2 by inhibitor pre-treatment; assay type: cell-based, mouse; conditions: 10T1/2, 50 μM methylation inhibitor, then cytokine (VEGF-A, bFGF, PDGF-bb)
Procedure: Before 10T1/2 was treated with 40 ng/ml of a cytokine (VEGF-A, bFGF or PDGF-bb) selected in Example 8-1, a cytokine receptor inhibitor was treated beforehand. To this end, VEGF-A- and PDGF-bb-treated groups were treated with a tyrosine kinase inhibitor named SU11248, and a bFGF-treated group was pre-treated with a tyrosine kinase inhibitor named PD173074 for 2 hours, treated with 40 ng/ml of each cytokine (VEGF-A, bFGF, and PDGF-bb) as an angiogenic factor for 24 hours, and then harvested to confirm KAI1 expression through RT-qPCR and Western blotting, and the result is shown in FIGS. 29A and 29B.
To confirm signaling of the decrease in KAI1 expression in 10T1/2 by a cytokine, RT-qPCR and Western blotting were used to confirm whether the decrease in KAI1 expression in 10T1/2 by a cytokine was blocked by treating 10T1/2 with a signal molecule inhibitor (a Src, Pkc, TGF-β, MAPK, AKT, p53. or JAK inhibitor) before cytokine stimulation, and the result is shown in FIGS. 35 to 38.
10T1/2 was treated with 50 μM of a methylation inhibitor (5-azacytidine), and then treated with each cytokine (VEGF-A, bFGF, and PDGF-bb), which is an angiogenic factor, to confirm KAI1 expression, and the result is shown in FIG. 40.

[2] = test system: KAI1 expression in 10T1/2; experiment: KAI1 expression of 10T1/2 treated with angiogenic cytokines (RT-qPCR, Western blotting, immunostaining); assay type: cell-based, mouse; conditions: for KAI1 expression: 10T1/2, 40 ng/ml cytokine, until 72 hours; for KAI1 expression after removal of the stimulant: 10T1/2 stimulated 24 hours, then fresh culture media
Procedure: That is, the change in KAI1 expression according to time (24 hrs, 48 hrs or 72 hrs) after 10T1/2 was treated with 40 ng/ml of each cytokine (VEGF-A, bFGF or PDGF-bb) was identified through RT-qPCR, Western blotting and immunostaining, and thus the results are shown in FIGS. 31A and 31B and 32. Here, each group of 10T1/2 was treated with 40 ng/ml of each cytokine (VEGF-A, bFGF, and PDGF-bb) as an angiogenic factor and cultured in RPMI 1640 HEPES supplemented with 10% (v/v) fetal bovine serum (FBS) and 1% antibiotics-antimycotics for up to 72 hours without change in a culture medium.
After FGF or PDGF stimulation was given to 10T1/2, 24 hours later, the media was changed with fresh culture media (general culture media), and then RT-qPCR and Western blotting were conducted to confirm whether there was a change in the decreased expression of KAI1. […] From the result, it can be seen that the decrease in KAI1 expression was reversible.

[3] = test system: prostate cancer cell line (PC-3); experiment: PC-3 matrigel subcutaneous tumor mass formation in mice; assay type: in vivo, mouse; conditions: PC-3 with matrigel subcutaneously in mice, compared to vehicle
From the text: More specifically, a prostate cancer cell line (PC-3) was mixed with a matrigel and subcutaneously injected into mice, and then tumor mass formation was observed and compared per experimental group. […] In addition, it can be confirmed that tumor mass was smaller in a group injected with a supernatant of KAI1 O/E 10T1/2 than in a group injected with a supernatant of mock 10T1/2. After the tumor mass obtained in the above-mentioned experiment was fixed with PFA, the cross-section was formed into sections, and a degree of angiogenesis per experimental group was determined by IF. Antibodies used herein were BS-1 Lectin (EC marker, 488 fluorescence), α-SMA (Pericyte marker, 555 fluorescence), and DAPI (nucleus marker, 405 fluorescence).

[4] = test system: MS-1 / 10T1/2 hybrid spheroid; experiment: EC-pericyte hybrid spheroid sprouting in collagen; assay type: cell-based, mouse; conditions: culture media supplemented with KAI1 protein
From the text: Here, a mouse endothelial cell line (MS-1) was used as ECs and 10T1/2 was used as pericytes. In addition, KAI1 was overexpressed using an adenovirus in pericytes. In the manufacture of the spheroid, a ratio of the number of each type of cell (EC:pericyte) was 2:1, and the total cell number was fixed at 3×10^3. As culture media used to grow the spheroids, 10% FBS and 1% antibiotics-antimycotics-containing Dulbecco's modified eagle medium (DMEM) was used. In addition, effective EC sprouting was induced by a treatment of 100 ng/ml of recombinant human VEGF.
Afterwards, to verify an anticancer effect of a KAI1 protein treatment, B16 and an EC-pericyte hybrid spheroid were manufactured and embedded in collagen, and then a degree of vessel formation was observed by time. Here, a mouse endothelial cell line (MS-1) was used as ECs, and 10T1/2 was used as pericytes. In the manufacture of the spheroid, a ratio of the number of each type of cell (EC:pericyte) was 2:1, and the total cell number was fixed at 3×10^3. As culture media used to grow the spheroids, Dulbecco's modified eagle medium (DMEM) supplemented with 10% FBS and 1% antibiotics-antimycotics and a KAI1 protein was used. As a result, as shown in FIGS. 50A and 50B and 51, it can be confirmed that the sprouting of the KAI1 protein was inhibited in the spheroids. Therefore, an anticancer effect of the KAI1 protein was able to be expected.

[5] = test system: retinal angiogenesis; experiment: retinal disease model mouse, injection into the orbit; assay type: in vivo; conditions: injected into the orbit of model mouse, immunofluorescence, compared with control (not treated)
Procedure: Retinal diseases such as diabetic retinopathy and central serous (chorio)retinopathy are diseases of the loss of eyesight as vessel permeability is increased by a VEGF, body fluids gather around the retina (macular edema), and pathological angiogenesis occur.
A KAI1 protein was injected into the orbit of a model mouse with such a disease, and a degree of angiogenesis inhibition was compared with a control (not treated).

[6] = test system: mouse cornea; experiment: mouse cornea micropocket assay; assay type: in vivo; conditions: pellet containing both cytokine and protein, 10 days, similar to vehicle
Procedure: Based on the above-described in vitro experiment, a mouse cornea micropocket assay was performed to confirm whether angiogenesis was actually regulated by in vivo regulation of the KAI1 expression of pericytes. After a pocket formed by mixing cytokine, sucralfate and poly-hema (from which the cytokine was slowly secreted little by little) was manufactured and added to the mouse cornea, a degree of angiogenesis per experimental group was examined for 10 days. As a result, as shown in FIGS. 47A and 47B, it can be confirmed that, compared to a vehicle, angiogenesis in the mouse cornea injected with a pellet containing only a cytokine was added was much increased.

Nc1ncn([C@@H]2O[C@H](CO)[C@@H](O)[C@H]2O)c(=O)n1 [5-azacytidine]
KAI1 gene expression [1]: not decreased

bFGF: typical angiogenic factor (cytokine)
KAI1 expression [2]: continuously decreased
KAI1 expression after removal of the stimulant [2]: recovered again

B1: KAI1 protein: KAI1(CD82) polypeptide, human-derived amino acid sequence of SEQ ID NO: 1 or mouse-derived SEQ ID NO: 2 (protein)
chain: MGAGCVKVTKYFLFLFNLLFFILGAVILGFGVWILADKNSFISVLQTSSSSLQVGAYVFIGVGAITIVMGFLGCIGAVNEVRCLLGLYFVFLLLILIAQVTVGVLFYFNADKLKKEMGNTVMDIIRNYTANATSSREEAWDYVQAQVKCCGWVSHYNWTENEELMGFTKTTYPCSCEKIKEEDNQLIVKKGFCEADNSTVSENNPEDWPVNTEGCMEKAQAWLQENFGILLGVCAGVAVIELLGLFLSICLCRYIHSEDYSKVPKY
tumor mass [3]: smaller
sprouting of B16 and EC-pericyte hybrid spheroids [4]: inhibited
angiogenesis in the presence of VEGF [5]: angiogenesis was inhibited; also recorded: inhibition of angiogenesis
angiogenesis in the mouse cornea [6]: no angiogenesis

B2: PDGF-bb: typical angiogenic factor (cytokine) (protein, UniProt P01127 82-190, looked up)
Platelet-derived growth …: SLGSLTIAEPAMIAECKTRTEVFEISRRLIDRTNANFLVWPPCVEVQRCSGCCNNRNVQCRPTQVQLRPVQVRKIEIVRKKPIFKKATVTLEDHLACKCETVAAARPVT
modifications: homodimer
KAI1 expression [2]: continuously decreased
KAI1 expression after removal of the stimulant [2]: recovered again
